# Laboratory results reported in the supplement of paper PMC9170038.
# Test system: K4 kissing-loop RNA reporter
# Assay: apparent KD of K4 kissing-loop reporter; higher = weaker reporter binding
# Conditions: Eterna round: R107
# Method: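 RNA-MaP round R107: designed RNA switches with theophylline, tryptophan, arginine or FMN aptamers are transcribed on-chip within common flanks. They are titrated with a labelled K4 kissing-loop RNA reporter in RNA-MaP buffer (100 mM Tris pH 7.5, 80 mM KCl, 4 mM MgCl2), without ligand or with the indicated ligand. Median apparent KD per design.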
# [1] = input ligand: theophylline 20 uM
# [2] = input ligand: tryptophan 2.4 mM
# 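Note: bound reporter read as fluorescence of individual clusters on recovered sequencing chips by microscopy, with normalized cluster intensities fitted with a binding model.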
Sequence,apparent KD of K4 kissing-loop reporter (input ligand: FMN 200 uM) [nM],apparent KD of K4 kissing-loop reporter (input ligand: arginine 13.2 mM) [nM],apparent KD of K4 kissing-loop reporter (input ligand: none) [nM],apparent KD of K4 kissing-loop reporter [1] [nM],apparent KD of K4 kissing-loop reporter [2] [nM]
GCUCGUCAUGUCAGCGGUGGUACUGUCGAUACCAGUGCCGUAAGGCGCCCUUGGCAGCGAUGCGCUGGAGUGAUGUUCCAGCGUU [#2 Exclusion - Theophylline A Attempt #32 (HarryS)],110,92.9,116,120,119
GGAGAGCGGAACGAUACCAGCUGCGGCACGCACCGGAAGUUAAGCCAGUGAUGUUGGCGGAGCCCUUGGCAGCGUGCGCGCGUCC [Abeusma],122,93.3,104,145,105
GGAGUUACCUGGGAUACCAGCCGGAGGCCCAGAGCUCGGAGUGAUGUUCUGGGAUGUUUCGGCCCUUGGCAGCUCUGGGUCUCCG [#2 Exclusion - Theophylline B Attempt #5 (HarryS)],1050,627,806,433,1410
GGAGUUACCUGGGAUACCAGUCGGAGUCUCAGAGCACGGAGUGAUGUUCUGGGAUGUUUCGGCCCUUGGCAGCUCUGGGACUCCA [#2 Exclusion - Theophylline B Attempt #15 (HarryS)],317,209,268,219,228
GGAUAGGAUAGAGGAUAUGGAAAACACAGAAGUGACUUGUUGUGUUUAUCCAUAGGGAGUGAUGUUCCAGAAGGCUGUCCUAUCG [MatMod 22 - Jieux - Exclusion - FMN B],333,206,206,230,154
GGAUCCACCAGUGAUGUUGGAGAAAACUCUAAGGAUAUGACGAAAGUCAGAAGGUGGUAGACUGGACAAAGUCCGGUGGGAUCCA [FmnA10 U30+G78],264,229,350,406,317
GGAUUGCGUUCGGCCGCCACUAGACUACAUUCCACGCCCGACCCGUUUUUAAGUGAUGUUUAAACUAGGACCGGGAACCGAUUUC [theeternabot_exclusion_KL_Trp_B_33],435,291,395,388,–
GGAUUUGAGUGAUGUUUAAAACGAGUGUCCAAGGAUAUUGCCCAAACAAGAAGGUGGGCAUGCUUUUGCGAUAAUCAACGGAGAC [theeternabot_exclusion_KL_FMN_A_9],408,666,451,606,291
GGCAGUGAUGUUGCCAGUGGCAGAUGAGAAGGAGCGUGGUGAGACACAGGUAGGUCGCUCAUUGAAAUUGCUGUCACUAAAAUGC [#5],289,322,266,234,215
GGCAGUGAUGUUGCCUAAGCAACGCAUGCAGAGGAUAUUCGUUCGGGAAGAAGGCUGCAGCGUUCUCUCGCGAGUGAUGUUCGCG [Same State FMN A GF 23],182,137,165,165,162
GGCGGCUGCGCGCAAGCGCAGCCGGCCGAUACCAGCGCGACGGCGCGCCCUUGGCAGCGGCGCCGAGUGAUGUUCGGCCUGCCGG [#2 Same State - Theophylline A Attempt #19 (HarryS)],433,380,738,418,416
GGGAGAAGAGCGGCCGCCACUCAGACAGCAGCAGAAUAUAGUGAUGUUAUAUAGGAAAGGCGGAGGAGGACCGGGCUUAAGAGGG [#20 K4 Tryptophan B Same State],308,303,278,362,316
GGGAGAGCGCGAAGGAGCGCCCUGACAGGUUGCUGCCGUGGGCAGUGAUGUUGCUCAGUCCGGCAGGUAGGUCGCGUGCUCUCCC,178,148,192,200,177
GGGAGUAGUGCGGCCGCCACUGAGAAAGAAGAAGAAUAUAGUGAUGUUAUGUAGGAAAGGAAGAACAGGACCGGGCAUUAGAUUU [SSTRyptB.G],455,432,477,387,270
GGGCCUGGGCCCGGAAGGGCCUGGGCCCGUUAGGAUAUGACGUGAUUCAGAAGGGAUGGGUGGAGUGAUGUUCCACCCGAGAGGG [#2 Same State - FMN A Attempt #25 (HarryS)],85.9,90.5,81.5,73.1,63.3
GGGCUGGUGCUAGGAUAUGCGAUGAAUGCUCAGAAAACCUUGAGUCCGCAGUGAUGUUGCGGCACCGCAGAAGGAGCUAAGGCUC [Reorinraor],129,138,111,171,127
GGGUGGCAGACGGCCGCCACUCUUAGCAGCCAGUGAGUGAUGUUCGUGGCGGAGUGAUGUUCCUAGAGGACCGGGUUUGUUGUUC [Same State Tryptophan B GF 20],413,259,478,412,318
GGGUGGCAGGCGGCCGCCACUCUUAGCAGCCAGUGAGUGAUGUUCGUGGCGGAAGAAUGUUCGUAGAGGACCGGGUUUGUUGUUC [Same State Tryptophan B GF 21],262,180,257,254,216
GGUAGCAUGGCGGCCGCCACUCGGACGACAUAGCACAUGUCGACCAGUGAUGUUGGUUCAAACACGAGGACCGGGCCAUGCUACC,724,715,798,629,135
GGUAGCAUGGCGGCCGCCACUUAUGUUCACAUAGUGAUGUUAUGUUCACAUUUAUGGCCCUGCUUAAGGACCGGGCCAUGCUACC,118,90.3,105,82.1,272
GGUAGCAUGGCGGCCGCCACUUUGCACCUUUUCUUUUCUUUUGGUGCUUCACGAGUGAUGUUCGUAAGGACCGGGCCAUGCUACC,259,217,261,213,195

Sequence,apparent KD of K4 kissing-loop reporter (input ligand: FMN 200 uM) [nM],apparent KD of K4 kissing-loop reporter (input ligand: arginine 13.2 mM) [nM],apparent KD of K4 kissing-loop reporter (input ligand: none) [nM],apparent KD of K4 kissing-loop reporter [1] [nM],apparent KD of K4 kissing-loop reporter [2] [nM]
GGUCCGCACAUGAGUGAUGUUCAUGUAGAUACCAGUAUCGAAAGAUACCCUUGGCAGCUACGGCACGGACCGGCGGGAAACCGCC,213,200,194,291,184
GGUCCGGGCUCGGCCGCCACUCCCUCCUGCCGCAAGGUGGGAUACCGAGUGAUGUUCGGUUGGAGGAGGACCGGGAGCCCGGACC [#2 Exclusion - Tryptophan B Attempt #14 (HarryS)],115,124,121,133,118
GGUGGACUAGUCGAGUGAUGUUCGAGGCAUCGAGGACCGGUACGGCCGCCACUCGCAAAUCUACCGUGCGUUAACCACCAAAGUG [theeternabot_sameState_KL_Trp_A_37],295,152,304,317,344
GGUGUUGUUUGUGCUGUUUUCCUCGUUUCUCGAGGACCGGUACGGCCGCCACUCGAGUGAUGUUUGGGUAGCGAUCCUUGUUAGU [Bdazzled - #6 Exc. Tryptophan A],335,215,313,272,383
GGUUCGAGUGAUGUUCGGGUCGAUUGGGAAGGAGCGCCCGGAAGGGCAGGUAGGUCGCCCGGGCCGCGCGGGAAACCGCGCGUCC [#2 Same State - Arginine A Attempt #7 (HarryS)],216,121,175,147,144
GGUUCUGGAAUCGAGUGAUGUUCGGUGUUGCAGGAUAUAGAGAGAUCUAGAAGGGCAGUUUGUAUUUUAUUGAGUGAUUUUCUUU [Last Minute #3],84,83.1,106,106,93.4
GGUUGAAGUACCCGGAGUGAUGUUCCGGAUACCAGCAAACCAACUUGCCCUUGGCAGCCGUAUAGCGUCCGGUGGACCGAGCAUA [Soriesreve],98.5,70.3,77.4,76.2,78.7
GGUUUAUAGGAGGAUACCAGUACGGAUAAAGUACGUUAAUAGUAGAGUGAUGUUCUAAAGUACCCUUGGCAGCUUAGAUUAAGUU [ExTheophylB.J],72,142,106,110,64.4
GUACGCUCUCGAGUGAUGUUCGGUAAUCCUUAGGAUAUCGCUUUUGCGAGAAGGAAGGGAAUGAGGAAACUCGUUCUGAGUGUAC [FMN A 21],523,299,366,481,743
GUACGCUUCCGAGUGAUGUUCGGUAAUAGUUAGGAUAUCGUUUUUUCGAGAAGGAACUGAAUGAGGAAACUCGUUCGAAGUGUAC [FMN A 16],395,266,380,424,266
GUAGACAGGCUGCGAACCUAGUCUACAGACUAGGAUAUCAGGAAACUGAGAAGGAGUCUAGUUGCAGUGAUGUUGCAAGAAUAAU [KL-SSFMN-A25],81.3,125,94.6,135,84.7
GUAGGAUGAGGAGGAGGAUGAAUUACUGAAGGAGCGCAUAUUUUUGCAGGUAGGUCGCGGUAAAGAAGUAUAGUGAUGUUAUAUA [SSArgA.J],410,434,381,624,304
GUAGUUGCGCAAGGAUAUUAGUUAAGUGAUGUUUGAUUCGGUAUUGUUUACGUACACUGACCCGAUUAAGAAGGUGCGGGCAGCG [theeternabot_exclusion_KL_FMN_B_50],604,582,580,343,369
GUAUGUGGAAACACGUACUUGUAUCCUAAGCAGGAUAUGCGGAAACGCAGAAGGGCUACCAGCGAGUUUAUCCAGUGAUGUUGGA [Ex FMN A 12],289,235,269,264,288
GUCCAACCUGGAGGAUAUCUGCUGUCCAGUGAUGUUGGACACUUUAGUAAAGGCCGGGUAGCCCGCAGAGAAGGCCGGAGUUGCC [Arceer],310,328,375,464,327
GUCCCGAGUGAUGUUCGGGUCGUUUGGGAAGGAGCGCCCGGAAGGGCAGGUAGGUCGCCCGGACCGUGCAGGUAACUGUGCGGCC [#2 Same State - Arginine A Attempt #18 (HarryS)],176,146,181,196,178
GUGCAGUGAUGUUGCACGAGGAAAGACGAUACCAGCCGUAAAUAAGGCCCUUGGCAGCGUGGACUAGCAUAAAGUAUGCUAGCCU [Isenaonle],118,104,123,116,96.5
GUGCGCGCGGCGGCCGCCACUCGCAUGAGAGUGAUGUUCUUGCCCGGGCCGCAAGGCCCGGGUGUGAGGACCGGGCCGGGCUGCG [#2 Same State - Tryptophan B Attempt #26 (HarryS)],115,1.09,180,0.148,425
GUUACUUCAGAAGGAUAUUAGUAAACAACACGGUAGUGAUGUUACCGUUAUCAAGCCCGGCUUCACUAAGAAGGUCUCCACCGCG [theeternabot_sameState_KL_FMN_B_23],52,67.9,52.9,70,54.1
GUUCGGAUGCGGGAUACCAGCGUACCGAGCAAGCUUCGGGUAGUGAUGUUAUCUGAAUUACGCCCUUGGCAGCCCGCAUCCGGGC [clock_plus],265,234,285,212,256
GUUUGGCGGGCGGCCGCCACUCGGACGAGUCGCAGUGAUGUUGUGGUUUGCCAGUCGUCUUCAUCGAGGACCGGGUUUGUCGGGC [Exclusion Tryptophan B GF 19],495,380,600,571,496
